Test results published in patent US20030143198.

Assays:
[1] = molecular target: Human precursor IL-18 expressed as an N-terminal hexa-histidine tagged fusion
[2] = molecular target: Human precursor IL-18 (Pro-IL-18), co-expressed in E. coli from the bicistronic pET28 cassette
[3] = molecular target: Ubiquitin-IL-18 fusion (76 amino acid ubiquitin fused to the N-terminus of mature human IL-18)

B1: 6-his tagged N-terminally truncated caspase 5 (protein)
chain: MGHHHHHHGILKLCPREEFLRLCKKNHDEIYPIKKREDRRRLALIICNTKFDHLPARNGAHYDIVGMKRLLQGLGYTVVDEKNLTARDMESVLRAFAARPEHKSSDSTFLVLMSHGILEGICGTAHKKKKPDVLLYDTIFQIFNNRNCLSLKDKPKVIIVQACRGEKHGELWVRDSPASLAVISSQSSENLEADSVCKIHEEKDFIAFCSSTPHNVSWRDRTRGSIFITELITCFQKYSCCCHLMEIFRKVQKSFEVPQAKAQMPTIERATLTRDFYLFPGN
cleavage of prodomain, SDS-PAGE analysis [1]: The cleavage reaction of prodomain was completed >90 % according to SDS-PAGE analysis | cleavage to mature IL-18 on co-expression in E. coli [2]: cleavage to mature EL-18 with caspase-5 is complete by 18 hours at 29 °C

B2: 6-his tagged N-terminally truncated caspase 4 (protein)
chain: MGHHHHHHGALKLCPHEEFLRLCKERAEEIYPIKERNNRTRLALIICNTEFDHLPPRNGADFDITGMKELLEGLDYSVDVEENLTARDMESALRAFATRPEHKSSDSTFLVLMSHGILEGICGTVHDEKKPDVLLYDTIFQIFNNRNCLSLKDKPKVIIVQACRGANRGELWVRDSPTSLEVASSQSSENLEEDAVYKTHVEKDFIAFCSSTPHNVSWRDSTMGSIFITQLITCFQKYSWCCHLEEVFRKVQQSFETPRAKAQMPTIERLSMTRYFYLFPGN
cleavage of prodomain, SDS-PAGE analysis [1]: The cleavage reaction of prodomain was completed >90 % according to SDS-PAGE analysis | cleavage to mature IL-18 on co-expression in E. coli [2]: Cleavage to mature IL-18 with caspase-4 is complete by 4 hours at 37 °C or by 18 hours at 29 °C

B3: Ubiquitin protease 1 (Ubp-1), full-length (protein)
chain: MDLFIESKINSLLQFLFGSRQDFLRNFKTWSNNNNNLSIYLLIFGIVVFFYKKPDHLNYIVESVSEMTTNFRNNNSLSRWLPRSKFTHLDEEILKRGGFIAGLVNDGNTCFMNSVLQSLASSRELMEFLDNNVIRTYEEIEQNEHNEEGNGQESAQDEATHKKNTRKGGKVYGKHKKKLNRKSSSKEDEEKSQEPDITFSVALRDLLSALNAKYYRDKPYFKTNSLLKAMSKSPRKNILLGYDQEDAQEFFQNILAELESNVKSLNTEKLDTTPVAKSELPDDALVGQLNLGEVGTVYIPTEQIDPNSILHDKSIQNFTPFKLMTPLDGITAERIGCLQCGENGGIRYSVFSGLSLNLPNENIGSTLKLSQLLSDWSKPEIIEGVECNRCALTAAHSHLFGQLKEFEKKPEGSIPEKLINAVKDRVHQIEEVLAKPVIDDEDYKKLHTANMVRKCSKSKQILISRPPPLLSIHINRSVFDPRTYMIRKNNSKVLFKSRLNLAPWCCDINEINLDARLPMSKKEKAAQQDSSEDENIGGEYYTKLHERFEQEFEDSEEEKEYDDAEGNYASHYNHTKDISNYDPLNGEVDGVTSDDEDEYIEETDALGNTIKKRIIEHSDVENENVKDNEELQEIDNVSLDEPKINVEDQLETSSDEEDVIPAPPINYARSFSTVPATPLTYSLRSVIVHYGTHNYGHYIAFRKYRGCWWRISDETVYVVDEAEVLSTPGVFMLFYEYDFDEETGKMKDDLEAIQSNNEEDDEKEQEQKGVQEPKESQEQGEGEEQEEGQEQMKFERTEDHRDISGKDVN
processing of Ub-IL-18 to mature IL-18 on co-expression in E. coli (Western blot) [3]: efficient processing of Ub-IL-18 to mature active IL-18
